From publication PMC12524728, “Integrating Structural Bioinformatics and Functional Mechanisms of Sesquiterpene Synthases CARS and CADS in Lavandula angustifolia (Lavender)” (International Journal of Molecular Sciences, 2025)

Assays:
Assay in all cases: enzyme kinetics, Hanes-Woolf plot
Assay type in all cases: biochemical, Lavandula angustifolia
Settings in all cases: Mg2+-dependent enzyme; assay conditions only in supplement
[1] = test system: T1, CC(C)=CCC/C(C)=C/CC/C(C)=C/CO[P@@](=O)(O)OP(=O)(O)O
T1 construct: C-terminal deletion of residues 522-548; host and tags only in supplement
Excerpt: enzyme kinetics, Hanes-Woolf plot on ∆522–548 (CARS)

[2] = test system: T2, CC(C)=CCC/C(C)=C/CC/C(C)=C/CO[P@@](=O)(O)OP(=O)(O)O
T2 construct: C-terminal deletion of residues 529-555; host and tags only in supplement
Excerpt: enzyme kinetics, Hanes-Woolf plot on ∆529–555 (CADS)

[3] = substrate: CC(C)=CCC/C(C)=C/CC/C(C)=C/CO[P@@](=O)(O)OP(=O)(O)O
Excerpt: enzyme kinetics, Hanes-Woolf plot on ∆1–226 (CARS)

[4] = substrate: CC(C)=CCC/C(C)=C/CC/C(C)=C/CO[P@@](=O)(O)OP(=O)(O)O; remark: listed apart in the source
Excerpt: enzyme kinetics, Hanes-Woolf plot on CARS (wild-type, full-length)

[5] = substrate: CC(C)=CCC/C(C)=C/CC/C(C)=C/CO[P@@](=O)(O)OP(=O)(O)O; remark: listed apart in the source
Excerpt: enzyme kinetics, Hanes-Woolf plot on ∆1–228 (CADS)

[6] = substrate: CC(C)=CCC/C(C)=C/CC/C(C)=C/CO[P@@](=O)(O)OP(=O)(O)O; remark: listed apart in the source
Excerpt: enzyme kinetics, Hanes-Woolf plot on CADS (wild-type, full-length)

∆522–548 (CARS) (Lavandula angustifolia; DEL522-548)
Km [1]: 4.96 ± 0.17 µM
kcat [1]: 0.391 ± 0.0115 s⁻¹

∆529–555 (CADS) (Lavandula angustifolia; DEL529-555)
Km [2]: 7.13 ± 0.29 µM
kcat [2]: 0.44 ± 0.00883 s⁻¹

B1: ∆1–226 (CARS) (Lavandula angustifolia) (protein)
chain: ETLLNFAKLDFNLVQKIHQKELNQITRWWKELDFGKNLPFARDRPVECYFWIVGVYFEPRYGIARTLLTKIIYLASVLDDIYDVYGTLAELTIFTQIIRRWDSDAMDQLPPYMRIYCKALFDVYVEMEEEMGKIRKSYAVEYAKKEMKRLAEMYFQEAQWAFSKYKPTMKEYLKVALISSGYMMMTINSLTTIEDLITEEEFNWILSEPRILRASLTITRLMDDLAGYGTEGKMSAVHYYMAENGVSEGEAFKEVSGIIKSAWKDVNAECVEPRAASTTILRCVVDFTRVIVLLYSDEDAYGNSQTKTKDLIKSVLVDPLII
notes: N-terminal deletion of residues 1-226; host and tags only in supplement
Km [3]: 9.57 ± 0.24 µM
kcat [3]: 0.24 ± 0.00533 s⁻¹

B2: CARS (wild-type, full-length) (Lavandula angustifolia) (protein)
chain: MAAPISTNNVCSDDARPVTYHPNVWSDYFLRYTSELTEISVAKKEEHERQKEAIRNLLLQTRDDSTLKLELVDAIQRLGIGYHFEEEIHNSLRNIYDTNPIYNAEDDNLRVAALRFRLIRQQGFPAPCDVFRKFVDEEGEFKSWVSNDVEGLLNLYEASNFAVHGEEILEKALEFCSLRLEFLTQGMTNSLSMRVKEALKIPISKTLTRLGARKFMSMYQEDESHNETLLNFAKLDFNLVQKIHQKELNQITRWWKELDFGKNLPFARDRPVECYFWIVGVYFEPRYGIARTLLTKIIYLASVLDDIYDVYGTLAELTIFTQIIRRWDSDAMDQLPPYMRIYCKALFDVYVEMEEEMGKIRKSYAVEYAKKEMKRLAEMYFQEAQWAFSKYKPTMKEYLKVALISSGYMMMTINSLTTIEDLITEEEFNWILSEPRILRASLTITRLMDDLAGYGTEGKMSAVHYYMAENGVSEGEAFKEVSGIIKSAWKDVNAECVEPRAASTTILRCVVDFTRVIVLLYSDEDAYGNSQTKTKDLIKSVLVDPLII
notes: full-length, codon-optimised gene; monomer by DLS; host and tags only in supplement
Km [4]: 11.34 ± 0.13 µM
kcat [4]: 0.104 ± 0.00183 s⁻¹

B3: ∆1–228 (CADS) (Lavandula angustifolia) (protein)
chain: ELLLKLAKSNFMFLQNLYKEELSQLSRWWNKFDLKSKLPYARDRLVEAYIWGVGYHYEPRYAYVRRGLVIGIQIIAIMDDTYDNYATVDEAQLFTEMFERWSMDGIDGVPDYLKIAYHFVVSAFEDYERDAGKLGKQFAAPYFKQTIQQLARAYNQELKWVMGTQSMPSFQDYAKNSEITSCIYIMSASVFHGLESVTQETIDWLKNEPNFAVSTGMIGRYWDDIGSHERESRGGKMLTAVGCYMKQYGVSKKEAVRKFREQVEDLWKDVNKGYTAMTCMPRETAVLFLNYARMCDASYTENNDDGYTDPDFSKRKISALFLDPLVF
notes: N-terminal deletion of residues 1-228; host and tags only in supplement
Km [5]: 11.13 ± 0.37 µM
kcat [5]: 0.2937 ± 0.00233 s⁻¹

B4: CADS (wild-type, full-length) (Lavandula angustifolia) (protein)
chain: MATSAVVNCLGGVRPHTIRYEPNMWTHTFSNFSIDEQVQGEYAEEIEALKQEVRSMLTAATTCKEQLILIDTLERLGLSYHFETEIEQKLKEIILHINREEDASGGDCDLYTTSLGFRVIRQHQYHISCGVFEKYLDKDGKFEESLSSDTEGILSLYEAAHVRFRDETLLQEAARFSRHHLKGMEEVLESPLREKVQRALQHPLHRDIPIFYAHFFISNIYQKDDSRNELLLKLAKSNFMFLQNLYKEELSQLSRWWNKFDLKSKLPYARDRLVEAYIWGVGYHYEPRYAYVRRGLVIGIQIIAIMDDTYDNYATVDEAQLFTEMFERWSMDGIDGVPDYLKIAYHFVVSAFEDYERDAGKLGKQFAAPYFKQTIQQLARAYNQELKWVMGTQSMPSFQDYAKNSEITSCIYIMSASVFHGLESVTQETIDWLKNEPNFAVSTGMIGRYWDDIGSHERESRGGKMLTAVGCYMKQYGVSKKEAVRKFREQVEDLWKDVNKGYTAMTCMPRETAVLFLNYARMCDASYTENNDDGYTDPDFSKRKISALFLDPLVF
notes: as for B2
Km [6]: 15.86 ± 0.21 µM
kcat [6]: 0.0993 ± 0.00383 s⁻¹
